In patent US20130022608A1 (POMONA RICERCA S R L, published 2013):

Legend:
Experiment in all cases: cell-based or functional assay
[1] = target: Hemagglutinin of A/Hong Kong/8/68 (H3N2) (Influenza A virus A/Hong Kong/8/68 …)
[2] = target: Hemagglutinin of A/Victoria/3/75 (H3N2) (Influenza A virus A/Victoria/3/75 (H3N2), UniProt P03435 17-567)
[3] = target: A/PR/8/34 (H1N1) hemagglutinin (HA), wild type (Influenza A virus A/PR/8/34 (H1N1), UniProt P03452 18-565)
[4] = target: Hemagglutinin of A/NC/20/99 (H1N1) (Influenza A virus A/NC/20/99 (H1N1))
[5] = target: Hemagglutinin of A/Wisconsin/67/2005 (H3N2) (Influenza A virus A/Wisconsin/67/2005 …)
[6] = target: Hemagglutinin of A/Swine/Parma/1/97 (H1N1) (Influenza A virus A/Swine/Parma/1/97 …)
[7] = target: Hemagglutinin of A/Mal/302/54 (H1N1) (Influenza A virus A/Mal/302/54 (H1N1))
[8] = target: Hemagglutinin of A/Milan/UHSR1/2009 (H1N1) (Influenza A virus A/Milan/UHSR1/2009 …)
[9] = target: H3N2 HA (A/Aichi/2/68), wild type (Influenza A virus A/Aichi/2/68 (H3N2), UniProt Q91MA7 17-566)
[10] = target: Hemagglutinin of A/Port Chalmers/1/73 (H3N2) (Influenza A virus A/Port Chalmers/1/73 …)
[11] = target: Hemagglutinin of A/WS/33 (H1N1) (Influenza A virus A/WS/33 (H1N1), UniProt P03454 18-565)

Binder	IC50, micro-neutralization assay on MDCK cells [1] [µg/mL]	IC50, micro-neutralization assay on MDCK cells [2] [µg/mL]	IC50, micro-neutralization assay on MDCK cells [3] [µg/mL]	IC50, micro-neutralization assay on MDCK cells [4] [µg/mL]	IC50, micro-neutralization assay on MDCK cells [5] [µg/mL]	IC50, micro-neutralization assay on MDCK cells [6] [µg/mL]	IC50, micro-neutralization assay on MDCK cells [7] [µg/mL]	IC50, micro-neutralization assay on MDCK cells [8] [µg/mL]	IC50, micro-neutralization assay on MDCK cells [9] [µg/mL]	IC50, micro-neutralization assay on MDCK cells [10] [µg/mL]	IC50, micro-neutralization assay on MDCK cells [11] [µg/mL]
Fab PN-SIA28 (Fab, V domains shown) VH: LEESGGGVVQPGRSLRLSCAASGFPFSSYGMHWVRQAPGKGLEWVAGVSYDGSYKYYADSVKGRFTISRDSSKSTLYLQMNSLRPEDTAVYYCARPSAIFGIYIILNGLDVWGQGTTVTVSS VL: ELTQSPSSVSASVGDRVTITCRATQGISSWLAWYQQKPGKPPKLLIFGASSLQSGVPSRFSGSGSGTDFTLTISSLQPEDFATYFCQQAHSFPLTFGGGTKVEIK	20	> 20	2	7	> 20	3.9	0.8	0.3	20	13.2	2.9
IgG PN-SIA28 (antibody, V domains shown) VH: LEESGGGVVQPGRSLRLSCAASGFPFSSYGMHWVRQAPGKGLEWVAGVSYDGSYKYYADSVKGRFTISRDSSKSTLYLQMNSLRPEDTAVYYCARPSAIFGIYIILNGLDVWGQGTTVTVSS VL: ELTQSPSSVSASVGDRVTITCRATQGISSWLAWYQQKPGKPPKLLIFGASSLQSGVPSRFSGSGSGTDFTLTISSLQPEDFATYFCQQAHSFPLTFGGGTKVEIK	0.8	1.2	1.2	–	–	2	0.64	0.2	0.6	1.8	1.3
